Some results are limits rather than exact numbers.

This assay deals with MAGE-B2 peptide-MHC (…/HLA-A*02:01) on cells (human). The assay can be described thus: cell-based or functional assay.

B1: TCR1 (TCR, V domains shown)
V domain 1: KQEVTQIPAALSVPEGENLVLNCSFTDSAIYNLQWFRQDPGKGLTSLLLIQSSQREQTSGRLNASLDKSSGRSTLYIAASQPGDSATYLCAAMKTSYDKVIFGPGTSLSVIP
V domain 2: GEEVAQTPKHLVRGEGQKAKLYCAPIKGHSYVFWYQQVLKNEFKFLISFQNENVFDETGMPKERFSAKCLPNSPCSLEIQATKLEDSAVYFCASSQGQGGYGYTFGSGTRLTVVE
B1: the “EC90 (peptide concentration), T2/peptide cytotoxicity assay” value (from here on “EC90 (peptide concentration)”) was at most 10 nM.

B2: TCR2 (TCR, V domains shown)
V domain 1: QKEVEQNSGPLSVPEGAIASLNCTYSDRGSQSFFWYRQYSGKSPELIMSIYSNGDKEDGRFTAQLNKASQYVSLLIRDSQPSDSATYLCAVNIPFSNSGGYQKVTFGTGTKLQVIP
V domain 2: NAGVTQTPKFRVLKTGQSMTLLCAQDMNHEYMYWYRQDPGMGLRLIHYSVGEGTTAKGEVPDGYNVSRLKKQNFLLGLESAAPSQTSVYFCASRHPGQYNQPQHFGDGTRLSILE
As to B2, the “E:T EC50, cytotoxicity against MAGE-B2+ MAGE-A4+ cancer cell lines” value was 0.01 E:T ratio; the “E:T EC50, cytotoxicity against MAGE-B2+ MAGE-A4- cancer cell lines” value was ~0.07 E:T ratio; the “EC90 (peptide concentration)” value was at most 10 nM.

B3: TCR3 (TCR, V domains shown)
V domain 1: AQKVTQAQTEISVVEKEDVTLDCVYETRDTTYYLFWYKQPPSGELVFLIRRNSFDEQNEISGRYSWNFQKSTSSFNFTITASQVVDSAVYFCALSVLRMDSSYKLIFGSGTRLLVRP
V domain 2: NAGVTQTPKFRVLKTGQSMTLLCAQDMNHEYMYWYRQDPGMGLRLIHYSVGEGTTAKGEVPDGYNVSRLKKQNFLLGLESAAPSQTSVYFCASSLQGAGQPQHFGDGTRLSILE
Consider B3, for which the “EC90 (peptide concentration)” value was at most 10 nM.

Values taken from patent publication US20240100162A1 (Amgen, published 2024).
